# Assay results published in paper PMC11162469, “Discovery of RXFP2 genetic association in resistant hypertensive men and RXFP2 antagonists for the treatment of resistant hypertension” (Scientific Reports, 2024).
# T1: rat RXFP1 (Rattus norvegicus, UniProt Q6R6I6)
# T1 sequence (Q6R6I6 1-758): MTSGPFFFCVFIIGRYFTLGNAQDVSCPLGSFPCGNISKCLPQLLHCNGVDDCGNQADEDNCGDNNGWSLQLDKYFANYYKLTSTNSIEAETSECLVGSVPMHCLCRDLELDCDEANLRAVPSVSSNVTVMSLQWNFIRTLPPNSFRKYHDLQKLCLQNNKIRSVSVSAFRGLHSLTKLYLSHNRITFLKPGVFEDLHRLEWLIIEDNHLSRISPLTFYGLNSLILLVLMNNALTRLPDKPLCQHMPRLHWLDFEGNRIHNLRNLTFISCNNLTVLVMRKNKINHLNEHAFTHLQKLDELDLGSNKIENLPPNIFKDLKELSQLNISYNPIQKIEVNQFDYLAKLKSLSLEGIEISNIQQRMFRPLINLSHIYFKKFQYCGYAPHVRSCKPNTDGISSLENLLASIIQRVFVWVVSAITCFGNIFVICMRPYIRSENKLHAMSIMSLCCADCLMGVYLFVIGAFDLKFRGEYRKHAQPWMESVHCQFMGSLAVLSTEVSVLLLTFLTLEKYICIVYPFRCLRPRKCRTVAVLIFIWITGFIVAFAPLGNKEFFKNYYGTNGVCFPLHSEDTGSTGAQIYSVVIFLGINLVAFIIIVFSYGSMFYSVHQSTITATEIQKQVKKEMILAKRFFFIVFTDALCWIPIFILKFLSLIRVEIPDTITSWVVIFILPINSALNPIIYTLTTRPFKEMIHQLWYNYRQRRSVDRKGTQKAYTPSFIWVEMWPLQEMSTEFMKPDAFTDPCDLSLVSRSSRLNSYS
# Columns and labels:
# rat RXFP2 [1] = molecular target: T2, rat RXFP2 (Rattus norvegicus, UniProt F7EMH8); assay: Cortisol secretion (ELISA) in H295R stably expressing rat RXFP2; type: cell-based; parameters: expressed in transfected cells; conditions: H295R-rRXFP2, 3.5 nM INSL3, 48 h, read-out: IC50 on INSL3-induced cortisol release
# T2 sequence (F7EMH8 20-737): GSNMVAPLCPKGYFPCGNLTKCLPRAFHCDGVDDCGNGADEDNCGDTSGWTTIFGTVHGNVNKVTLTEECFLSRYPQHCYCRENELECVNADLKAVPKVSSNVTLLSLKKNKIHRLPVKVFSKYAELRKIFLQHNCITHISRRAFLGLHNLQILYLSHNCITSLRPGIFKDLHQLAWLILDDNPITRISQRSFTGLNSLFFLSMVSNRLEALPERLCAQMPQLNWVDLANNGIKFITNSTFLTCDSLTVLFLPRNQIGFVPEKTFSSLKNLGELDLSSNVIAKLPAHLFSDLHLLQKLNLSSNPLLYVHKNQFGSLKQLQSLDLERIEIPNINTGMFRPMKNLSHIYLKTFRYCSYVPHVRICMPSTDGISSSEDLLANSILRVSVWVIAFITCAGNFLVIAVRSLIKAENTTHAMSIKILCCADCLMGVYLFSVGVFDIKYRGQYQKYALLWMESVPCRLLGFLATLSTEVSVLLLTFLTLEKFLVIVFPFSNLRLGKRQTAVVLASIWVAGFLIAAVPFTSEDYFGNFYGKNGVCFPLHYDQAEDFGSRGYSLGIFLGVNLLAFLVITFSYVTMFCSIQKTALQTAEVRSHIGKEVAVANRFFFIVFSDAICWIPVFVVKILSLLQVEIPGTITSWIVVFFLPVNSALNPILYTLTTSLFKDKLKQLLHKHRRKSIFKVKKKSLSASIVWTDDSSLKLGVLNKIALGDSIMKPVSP
# Procedure: (§1) RXFP2 antagonists were added to H295R-rRXFP2 before addition of INSL3 EC80 (3.5 nM) for 48 h, whereupon the cells and supernatants were collected. CYP11B1 and CYP11B2 mRNA were determined by qPCR and the RXFP2 blocker potencies were calculated (Fig. 5a). Fifteen antibodies have IC50s < 50 nM, and three of the top antibodies (1F2, 4G6, and 2D4) were selected for evaluation in steroid hormone secretion assays by ELISA.
# The day after seeding, H295R cells were treated and incubated for 48 h before supernatants and cell lysates were collected. Treatments included INSL3, IgG, 1F2, and 4G6 at 0.035 pM–3.5 µM, 2D4 at 0.01 nM–1 uM, or phosphate buffered saline control. In RXFP2 antagonist assays, 3.5 nM INSL3 was used as the stimulus. Cortisol present in the adrenal cell supernatant at 48 h post treatment was detected by ELISA (R&D KGE008B). Sample dilution was optimized at 1/90 using a standard curve. Aldosterone was below the limit of detection by ELISA (R&D KGE016) and required liquid–liquid extraction (LLE) twice using methyl tetra butyl ether. Post extraction samples were dried (SPE Nitrogen dryer) and reconstituted for ELISA analysis. All samples were run in duplicates.
# rat RXFP1 = molecular target: T1, rat RXFP1; assay: Relaxin-stimulated cAMP assay in HEK293 stably expressing rat RXFP1; conditions: three-point selectivity screen, n = 2
# rat RXFP2 [2] = molecular target: T2, rat RXFP2; assay: INSL3-stimulated CYP11B1 mRNA expression in H295R stably expressing rat RXFP2; type: cell-based; parameters: expressed in transfected cells; conditions: INSL3 EC80 (3.5 nM), 48 h, qPCR; N = 2
# Procedure: as §1
# (§2) Data entered as XY table, with x = [Inhibitor] (nM) and y = CYP11B2 or CYP11B1 fold change.
# rat RXFP2 [3] = molecular target: T2, rat RXFP2; assay: INSL3-stimulated CYP11B2 mRNA expression in H295R stably expressing rat RXFP2; type: cell-based; parameters: expressed in transfected cells; conditions: INSL3 EC80 (3.5 nM), 48 h, qPCR; N = 2
# Procedure: as §1, §2
molecule,measurement,setting,value
"4G6: Human/rat cross-reactive RXFP2 monoclonal antibody, rat IgG2b backbone; binds the LDLa domain (antibody, V domains shown) VH: EVQLQQSGPELVKPGASVKLSCKASGYTFTSYVMHWVKQKPEQGLEWIGYKNPSNDGIKYNEKFKGKATLTSDKSSNIAYMELFSLTSEDSAVYYCARSDFGSVWAMDYWGQGTSVTVSS VL: SIVMTQTPKFLLVSAGDRVTITCKASQSVNDDIVWYQQKPGQSPKLLIYYASNRYTGVPDRFTGSGYGTDFTFTISTVQAGDLAVYFCQQDYSSPFTFGSGTKLEIK",IC50,rat RXFP2 [1],0.26 nM
same,blockade of rRXFP1 (relaxin-stimulated cAMP),rat RXFP1,did not block
same,IC50,rat RXFP2 [2],0.33 nM
same,IC50,rat RXFP2 [3],0.1 nM
